Patent publication US20080241130A1

Target: mouse IL-17F/IL-17A heterodimer (mouse)
Test: cell-based or functional assay

mouse IL-17F/IL-17A heterodimer (mouse), sequence (Q62386 26-158, chain 1 of 2): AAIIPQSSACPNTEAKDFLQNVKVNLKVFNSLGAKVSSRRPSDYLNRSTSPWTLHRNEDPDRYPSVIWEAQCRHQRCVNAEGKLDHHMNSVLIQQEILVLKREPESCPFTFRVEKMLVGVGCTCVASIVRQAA
mouse IL-17F/IL-17A heterodimer (mouse), sequence (Q7TNI7 29-161, chain 2 of 2, further chain): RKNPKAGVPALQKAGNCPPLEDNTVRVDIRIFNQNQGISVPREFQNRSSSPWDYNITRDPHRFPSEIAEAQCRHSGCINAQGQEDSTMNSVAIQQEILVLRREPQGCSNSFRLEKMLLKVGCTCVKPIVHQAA

anti-mouse IL-17A antibody 50104 (R&D Systems)
decrease in CXCL1 production by MLE-12 cells induced by 200 ng/ml mIL-17F/IL-17A with 80 µg/ml antibody: 85%
